Measurements as given in paper PMC5892938, “SARNAclust: Semi-automatic detection of RNA protein binding motifs from immunoprecipitation data”.

Target: GST-SBP-SLBP (stem-loop binding protein) (Homo sapiens, UniProt Q14493 1-270)
Assay: targeted RNA Bind-n-Seq; RBNS binding buffer: 25 mM Tris pH 7.5, 150 mM KCl, 3 mM MgCl2, 0.1% Tween, 0.5 mg/mL BSA, 1 mM DTT; 27 nM protein, 750 pM RNA pool; temperature not stated; high values mean tight binding
Details: protein: recombinant; tags: N-terminal GST and SBP (pGEX6P1-SBP)
Outline: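 Read counts per sequence supply the binding signal, defined as the DEseq fold change on a binary-logarithm scale. These counts came from RNA of a designed, T7-transcribed oligo pool at 750 pM that bound 27 nM of GST-SBP-tagged protein, made in Rosetta(DE3) pLysS E. coli and glutathione-purified, in RBNS binding buffer. The bound RNA was reverse transcribed with a 10-nucleotide barcoded primer, PCR-amplified and sequenced on a MiSeq with 200-cycle paired-end reads, then processed with FLASH and HISAT2 and collapsed by barcode.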

Binder | binding signal [log2 fold change]
consensus (structured_RNA) RNA: GGUCACGUCUCAAUCAACUCCCAAAGGCCUUUCUAAAGGCCACCCAUCAACAGCUCGCAGUCAAG | 3.74 ± 0.124
consensus (structured_RNA) RNA: GGUCACGUCUCAAUCAACUCCCAAAGGUCCUUUUUAGGACCACCCAUCAACAGCUCGCAGUCAAG | 3.37 ± 0.117
consensus (structured_RNA) RNA: GGUCACGUCUCAAUCAACUCCCAAAGGUCUUUUUCAAGGCCACCCAUCAACAGCUCGCAGUCAAG | 3.26 ± 0.121
consensus (structured_RNA) RNA: GGUCACGUCUCAAUCAACUCCCAAAGGUCCUUCUAAGGGCCACCCAUCAACAGCUCGCAGUCAAG | 3.27 ± 0.13
consensus (structured_RNA) RNA: GGUCACGUCUCAAUCAACUCCCAAAGGUCCUUCUUAGGACCACCCAUCAACAGCUCGCAGUCAAG | 3.13 ± 0.132
consensus (structured_RNA) RNA: GGUCACGUCUCAAUCAACUCCCAAAGGCUCUUUUCAGAGCCACCCAUCAACAGCUCGCAGUCAAG | 3.73 ± 0.129
consensus (structured_RNA) RNA: GGUCACGUCUCAAUCAACUCCCAAAGGCUCUUCUCAGGGCCACCCAUCAACAGCUCGCAGUCAAG | 3.04 ± 0.124
consensus (structured_RNA) RNA: GGUCACGUCUCAAUCAACUCCCAAAGGUUUUUCUAAAAACCACCCAUCAACAGCUCGCAGUCAAG | 3.04 ± 0.144
consensus (structured_RNA) RNA: GGUCACGUCUCAAUCAACUCCCAAAGGUCUUUUUUAAGACCACCCAUCAACAGCUCGCAGUCAAG | 3.2 ± 0.118
consensus (structured_RNA) RNA: GGUCACGUCUCAAUCAACUCCCAAAGGCCCUUUUUAGGGCCACCCAUCAACAGCUCGCAGUCAAG | 3.48 ± 0.162
consensus (structured_RNA) RNA: GGUCACGUCUCAAUCAACUCCCAAAGGUUCUUUUCAGGACCACCCAUCAACAGCUCGCAGUCAAG | 3 ± 0.116
consensus (structured_RNA) RNA: GGUCACGUCUCAAUCAACUCCCAAAGGUCCUUUUAAGGGCCACCCAUCAACAGCUCGCAGUCAAG | 3.26 ± 0.128
consensus (structured_RNA) RNA: GGUCACGUCUCAAUCAACUCCCAAAGGCCUUUCUGAAGGCCACCCAUCAACAGCUCGCAGUCAAG | 3.32 ± 0.133
consensus (structured_RNA) RNA: GGUCACGUCUCAAUCAACUCCCAAAGGCCUUUUUGAAGGCCACCCAUCAACAGCUCGCAGUCAAG | 3.34 ± 0.155
consensus (structured_RNA) RNA: GGUCACGUCUCAAUCAACUCCCAAAGGCUCUUCUCAGAGCCACCCAUCAACAGCUCGCAGUCAAG | 3.23 ± 0.14
consensus (structured_RNA) RNA: GGUCACGUCUCAAUCAACUCCCAAAGGCUCUUUUUAGAGCCACCCAUCAACAGCUCGCAGUCAAG | 3.17 ± 0.142
consensus (structured_RNA) RNA: GGUCACGUCUCAAUCAACUCCCAAAGGCUUUUUUAAAAGCCACCCAUCAACAGCUCGCAGUCAAG | 3.48 ± 0.133
consensus (structured_RNA) RNA: GGUCACGUCUCAAUCAACUCCCAAAGGCCCUUUUGAGGGCCACCCAUCAACAGCUCGCAGUCAAG | 3.37 ± 0.174
consensus (structured_RNA) RNA: GGUCACGUCUCAAUCAACUCCCAAAGGUUCUUCUCAGAACCACCCAUCAACAGCUCGCAGUCAAG | 3.02 ± 0.121
consensus (structured_RNA) RNA: GGUCACGUCUCAAUCAACUCCCAAAGGCCCUUCUUAGGGCCACCCAUCAACAGCUCGCAGUCAAG | 3.46 ± 0.16
consensus (structured_RNA) RNA: GGUCACGUCUCAAUCAACUCCCAAAGGUUCUUUUAAGAACCACCCAUCAACAGCUCGCAGUCAAG | 3.2 ± 0.125
consensus (structured_RNA) RNA: GGUCACGUCUCAAUCAACUCCCAAAGGUCUUUCUUAAGACCACCCAUCAACAGCUCGCAGUCAAG | 3.14 ± 0.132

Binder | binding signal [log2 fold change]
consensus (structured_RNA) RNA: GGUCACGUCUCAAUCAACUCCCAAAGGCCUUUUUCAAGGCCACCCAUCAACAGCUCGCAGUCAAG | 3.7 ± 0.124
consensus (structured_RNA) RNA: GGUCACGUCUCAAUCAACUCCCAAAGGUCUUUCUAAAGACCACCCAUCAACAGCUCGCAGUCAAG | 3.73 ± 0.129
consensus (structured_RNA) RNA: GGUCACGUCUCAAUCAACUCCCAAAGGUCCUUUUGAGGACCACCCAUCAACAGCUCGCAGUCAAG | 3.06 ± 0.144
consensus (structured_RNA) RNA: GGUCACGUCUCAAUCAACUCCCAAAGGUCCUUCUCAGGGCCACCCAUCAACAGCUCGCAGUCAAG | 3.16 ± 0.131
consensus (structured_RNA) RNA: GGUCACGUCUCAAUCAACUCCCAAAGGCUUUUCUUAAAGCCACCCAUCAACAGCUCGCAGUCAAG | 3 ± 0.122
consensus (structured_RNA) RNA: GGUCACGUCUCAAUCAACUCCCAAAGGUCUUUUUAAAGGCCACCCAUCAACAGCUCGCAGUCAAG | 3.18 ± 0.125
consensus (structured_RNA) RNA: GGUCACGUCUCAAUCAACUCCCAAAGGCUUUUCUAAAAGCCACCCAUCAACAGCUCGCAGUCAAG | 3.29 ± 0.116
consensus (structured_RNA) RNA: GGUCACGUCUCAAUCAACUCCCAAAGGCCCUUCUGAGGGCCACCCAUCAACAGCUCGCAGUCAAG | 3.16 ± 0.18
consensus (structured_RNA) RNA: GGUCACGUCUCAAUCAACUCCCAAAGGCUUUUCUCAAAGCCACCCAUCAACAGCUCGCAGUCAAG | 3.24 ± 0.124
consensus (structured_RNA) RNA: GGUCACGUCUCAAUCAACUCCCAAAGGCUCUUCUAAGGGCCACCCAUCAACAGCUCGCAGUCAAG | 3.19 ± 0.123
consensus (structured_RNA) RNA: GGUCACGUCUCAAUCAACUCCCAAAGGCUUUUUUAAAGGCCACCCAUCAACAGCUCGCAGUCAAG | 3.16 ± 0.137
consensus (structured_RNA) RNA: GGUCACGUCUCAAUCAACUCCCAAAGGUCCUUCUCAGGACCACCCAUCAACAGCUCGCAGUCAAG | 3.44 ± 0.13
consensus (structured_RNA) RNA: GGUCACGUCUCAAUCAACUCCCAAAGGCUCUUCUUAGAGCCACCCAUCAACAGCUCGCAGUCAAG | 3.11 ± 0.136
consensus (structured_RNA) RNA: GGUCACGUCUCAAUCAACUCCCAAAGGUUCUUCUAAGAACCACCCAUCAACAGCUCGCAGUCAAG | 3.04 ± 0.122
consensus (structured_RNA) RNA: GGUCACGUCUCAAUCAACUCCCAAAGGUCUUUCUAAAGGCCACCCAUCAACAGCUCGCAGUCAAG | 3.19 ± 0.133
consensus (structured_RNA) RNA: GGUCACGUCUCAAUCAACUCCCAAAGGCUCUUCUAAGAGCCACCCAUCAACAGCUCGCAGUCAAG | 3.2 ± 0.135
consensus (structured_RNA) RNA: GGUCACGUCUCAAUCAACUCCCAAAGGCUUUUUUCAAGGCCACCCAUCAACAGCUCGCAGUCAAG | 3.17 ± 0.125
consensus (structured_RNA) RNA: GGUCACGUCUCAAUCAACUCCCAAAGGUUCUUUUCAGAACCACCCAUCAACAGCUCGCAGUCAAG | 3.44 ± 0.114
consensus (structured_RNA) RNA: GGUCACGUCUCAAUCAACUCCCAAAGGUUUUUUUCAAAACCACCCAUCAACAGCUCGCAGUCAAG | 3.04 ± 0.195
consensus (structured_RNA) RNA: GGUCACGUCUCAAUCAACUCCCAAAGGCUCUUUUAAGGGCCACCCAUCAACAGCUCGCAGUCAAG | 3.07 ± 0.12
consensus (structured_RNA) RNA: GGUCACGUCUCAAUCAACUCCCAAAGGUCCUUUUCAGGGCCACCCAUCAACAGCUCGCAGUCAAG | 3.33 ± 0.12
consensus (structured_RNA) RNA: GGUCACGUCUCAAUCAACUCCCAAAGGUCCUUCUAAGGACCACCCAUCAACAGCUCGCAGUCAAG | 3.48 ± 0.135
